The target in one series is T1, TRB1;NAC050-N (Arabidopsis thaliana;Arabidopsis …, UniProt Q8VWK4;Q9SQX9 1-300;1-184, |).
T1 sequence 1: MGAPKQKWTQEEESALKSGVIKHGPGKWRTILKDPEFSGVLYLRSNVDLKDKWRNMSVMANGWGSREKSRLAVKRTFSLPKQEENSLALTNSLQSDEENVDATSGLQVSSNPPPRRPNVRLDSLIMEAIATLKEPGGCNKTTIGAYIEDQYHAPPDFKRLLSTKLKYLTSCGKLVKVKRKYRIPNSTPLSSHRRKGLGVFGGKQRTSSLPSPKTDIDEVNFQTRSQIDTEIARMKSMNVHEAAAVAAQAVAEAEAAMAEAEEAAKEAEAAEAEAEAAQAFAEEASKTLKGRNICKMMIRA
T1 sequence 2: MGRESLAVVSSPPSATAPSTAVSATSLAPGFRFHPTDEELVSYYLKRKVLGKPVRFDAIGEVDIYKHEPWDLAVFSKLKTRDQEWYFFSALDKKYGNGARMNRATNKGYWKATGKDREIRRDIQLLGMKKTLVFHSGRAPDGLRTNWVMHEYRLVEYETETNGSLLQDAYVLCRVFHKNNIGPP
As to the kind of experiment: EMSA; TRB1 added to NAC050-N; larger complex; EMSA: 10 mM Tris-HCl pH 7.5, 50 mM NaCl, 1 mM EDTA, 5% glycerol, 1 mM DTT, 25 C, 30 min, 20 ng DNA + 1 ug protein; ITC: 20 mM Tris-HCl pH 7.5, 150 mM NaCl, 25 C, 5 uM protein, 100 uM DNA. To be noted: protein: recombinant;recombinant; tags: His;MBP; label: Cy5 at 5' of strand 1; blunt.

In a further series the target is T2, NAC050-N (Arabidopsis thaliana, UniProt Q9SQX9 1-184).
T2 sequence: T1 sequence 2
Briefly: EMSA; EMSA: 10 mM Tris-HCl pH 7.5, 50 mM NaCl, 1 mM EDTA, 5% glycerol, 1 mM DTT, 25 C, 30 min, 20 ng DNA + 1 ug protein; ITC: 20 mM Tris-HCl pH 7.5, 150 mM NaCl, 25 C, 5 uM protein, 100 uM DNA. To be noted: protein: recombinant; tags: MBP; chain copies: 2; label: Cy5 at 5' of strand 1; blunt.

B1: Probe 2 (P2) (dsDNA)
DNA 1: GACGCTTGAGCCTCAAGAAAT
DNA 2: ATTTCTTGAGGCTCAAGCGTC
Turning to B1, the binding result with TRB1;NAC050-N and in the series with NAC050-N was “binds” in each case.
